We go through three substances from PMC3098264, “Crystal Structure of the PAC1R Extracellular Domain Unifies a Consensus Fold for Hormone Recognition by Class B G-Protein Coupled Receptors” (PLoS ONE, 2011).

Entries after “also recorded” stand apart in the source; their conditions may differ.

In the test the target is T1, human PAC1R ECD (MBP-PAC1R (25–140)-His6) (Homo sapiens, UniProt P41586).
T1 construct: made in house; host or cells: E. coli Origami B (DE3), co-expressed with DsbC from pET-Duet1
T1 sequence (P41586 25-140 isoform P41586-3): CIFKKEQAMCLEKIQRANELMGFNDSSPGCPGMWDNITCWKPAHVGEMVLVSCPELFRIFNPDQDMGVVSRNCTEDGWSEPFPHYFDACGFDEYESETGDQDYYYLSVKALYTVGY
Description: AlphaScreen competitive peptide binding assay (unlabelled PACAP peptides vs biotin-PACAP (6–38)-NH2). Particulars: Ala scanning mutants of PACAP (15–31), 120 µM untagged competing peptides, 40 nM protein and biotinylated PACAP, 20°C, five hours, pH 7.4. A general note: In Alpha technology, singlet oxygen from a donor bead excites a nearby acceptor bead.
Description: The binding of PAC1R with a 35 residue PACAP peptide was analysed using the histidine detection kit of AlphaScreen® luminescent proximity assay from PerkinElmer. All binding assays were performed without cleaving the MBP tag from the receptor ECD. Using its C-terminal His tag, PAC1R was bound to Ni-chelate coated acceptor beads (5 µg/ml) at the final concentrations of 40 nM. Similarly, biotinylated PACAP was bound to streptavidin coated donor beads (5 µg/ml) at the final concentrations of 40 nM. The protein and peptide were pre-incubated with the respective beads for one hour (to ensure maximal binding to the beads), then they were allowed to interact with each other at 20°C for five hours. To perform competitive binding assays, 120 µM of the untagged competing peptides were added at time 0 of the five hour protein-peptide interaction period. All interactions were performed in the background of 50 mM MOPS pH 7.4, 150 mM NaCl and 7 mg/ml BSA. The binding signals were measured in a 384-well microplate using an Envision 2104 plate reader (PerkinElmer). The obtained data for competitive peptide binding were fit as a non-linear regression curve using the variable slope dose-response inhibition analysis using the Prism5.0 (GraphPad). To ensure the specificity of the competing peptides, a control peptide of biotin-Gly6-His6 was used in the same assay setup.
For “K20A′: Ala scanning mutant of PACAP (15–31) (KQMAVAKYLAAVLGKRY; Pituitary adenylate cyclase-activating polypeptide 38; UniProt P18509 146-162, looked up, variant K20A)”, the “effect of Ala mutation in PACAP (15–31) on binding to PAC1R ECD (Ala scanning)” value is listed as “affect the binding to PAC1R the most; also recorded: almost completely abolishes the ability of the peptide to bind the receptor ECD”. To “L27A′: Ala scanning mutant of PACAP (15–31) (KQMAVKKYLAAVAGKRY; Pituitary adenylate cyclase-activating polypeptide 38; UniProt P18509 146-162, looked up, variant L27A)” belongs “seem to play important roles in the binding; also recorded: affect the binding to PAC1R the most”; to “V19A′: Ala scanning mutant of PACAP (15–31) (KQMAAKKYLAAVLGKRY; Pituitary adenylate cyclase-activating polypeptide 38; UniProt P18509 146-162, looked up, variant V19A)”, “seem to play important roles in the binding; also recorded: affect the binding to PAC1R the most”.
